The record followed here is publication doi:10.1101/2020.11.27.401307.

As a reminder, the Kd is the free concentration of one partner at which half of the binding sites on the other are occupied at equilibrium, for simple one-to-one binding. A lower Kd goes with higher affinity.

Data set [1] has as its target T1, LARP6C La-module (Arabidopsis thaliana, UniProt Q9LHL3 137-332).
T1 sequence: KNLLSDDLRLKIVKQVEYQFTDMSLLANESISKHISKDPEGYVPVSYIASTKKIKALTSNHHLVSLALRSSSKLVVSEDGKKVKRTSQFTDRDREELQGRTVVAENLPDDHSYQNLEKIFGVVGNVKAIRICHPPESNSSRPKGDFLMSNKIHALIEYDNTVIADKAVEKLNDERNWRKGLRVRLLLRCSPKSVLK
The experiment in a line: ITC. In general terms: In ITC the heat of successive injections is recorded.

Data set [2] has as its target T1, LARP6C La-module. The experiment in a line: EMSA.
In data set [3] the target is T1, LARP6C La-module. The data set is described as follows: EMSA. The source holds these as a separate data set. A general note: A gel shift assay detects complexes by their altered migration in electrophoresis.
The target in data set [4] is T1, LARP6C La-module. The data set is described as follows: EMSA. The source holds these as a separate data set.

B1: B3 (ssRNA)
RNA: CCUCUCCCCCCCUCCCCCCUC
With B1, the binding result in the data set with LARP6C La-module [1] is given as “no binding”.

B2: A2 (ssRNA)
RNA: GAGAGAGGAGAAGAA
With B2, in the data set with LARP6C La-module [1], the binding result is listed as “no binding”.

B3: A1 (ssRNA)
RNA: AAAAAAGAAGAAAAA
For the molecule B3, the binding result with LARP6C La-module [1] is given as “no binding”.

B4: B1 (ssRNA)
RNA: CUUCUUUCUUUCUUUUUUGUU
B4: the Kd was found to be 2.8 µM in the data set with LARP6C La-module [1], 3.5 ± 0.3 µM with LARP6C La-module [2] and 0.8 ± 0.1 µM in the data set with LARP6C La-module [3].

B5: oligo(U20) (ssRNA)
RNA: UUUUUUUUUUUUUUUUUUUU
As for B5, the binding result with LARP6C La-module [4] is recorded as “binds”.

B6: B2 (ssRNA)
RNA: UCUCUCUGUUUCUUAUUCAUC
In the case of B6, the dissociation constant Kd came to 3.7 µM in the data set with LARP6C La-module [1], 5.6 ± 0.2 µM with LARP6C La-module [2] and 1.9 ± 0.3 µM in the data set with LARP6C La-module [3].
